Measured values: article PMC4989314, “Regulatory (pan-)genome of an obligate intracellular pathogen in the PVC superphylum”

Assays:
[1] = target: T1, His6-HrcA (Waddlia chondrophila) (UniProt D6YSD6); test: EMSA; details: EMSA with Cy5 PCR probes or 80 ng unlabelled DNA (GelRed); buffer, salt, pH and temperature not in material
T1 sequence: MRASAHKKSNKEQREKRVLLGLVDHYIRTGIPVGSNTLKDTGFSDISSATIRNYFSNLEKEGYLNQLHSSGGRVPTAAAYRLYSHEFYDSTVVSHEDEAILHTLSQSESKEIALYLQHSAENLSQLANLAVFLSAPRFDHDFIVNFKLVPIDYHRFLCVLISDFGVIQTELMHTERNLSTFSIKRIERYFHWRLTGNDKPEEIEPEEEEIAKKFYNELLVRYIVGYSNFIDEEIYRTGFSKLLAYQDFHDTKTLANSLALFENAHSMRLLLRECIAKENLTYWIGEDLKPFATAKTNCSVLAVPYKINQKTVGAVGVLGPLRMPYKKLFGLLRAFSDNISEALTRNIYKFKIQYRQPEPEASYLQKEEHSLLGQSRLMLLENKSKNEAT

[2] = target: T2, His6-Euo (Waddlia chondrophila) (UniProt D6YSI2); test: EMSA; details: EMSA with Cy5 PCR probes or 80 ng unlabelled DNA (GelRed); buffer, salt, pH and temperature not in material
T2 sequence: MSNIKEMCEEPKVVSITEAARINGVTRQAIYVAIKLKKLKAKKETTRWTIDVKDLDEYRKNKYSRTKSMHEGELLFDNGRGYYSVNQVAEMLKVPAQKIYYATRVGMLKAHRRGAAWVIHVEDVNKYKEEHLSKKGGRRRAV

His6-Euo = target: T3, His6-Euo (Waddlia chondrophila, UniProt D6YSI2 1-142); test: EMSA; EMSA with Cy5 PCR probes or 80 ng unlabelled DNA (GelRed); buffer, salt, pH and temperature not in material; details: protein: recombinant; tags: His6; chain copies: 2; label: Cy5; blunt
T3 sequence: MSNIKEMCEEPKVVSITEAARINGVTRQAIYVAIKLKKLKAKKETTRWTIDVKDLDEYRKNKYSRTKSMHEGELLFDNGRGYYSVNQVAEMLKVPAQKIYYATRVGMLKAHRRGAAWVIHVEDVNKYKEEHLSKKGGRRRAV

“CATAACTTTTTGGGAATTTCAAGATCGACTCGGGATCGTGCAGTAAAACATTAGTATCTAATACAAAGGTCTTTTTCTTCACATACGCTCCTTTTTAATAGCACTTATAGCTTGAGAGTGCTAAATCAATTGACTTAAATAGGTTTATTT (double strand) [PphoH]” was tested, and the binding [1] was “binds”.

In the case of “ATTTATAAAGAAACTTCTCTTGGAGGGCTTGCAGTAAACGTGCCTGAATGCTAAAAGATTTGGTATATGGAGCTAATAAAGGATCAAATGCAAAGATACGAAGAACGGGAACTCGTCGAATTCGAAAATCAAGGGATAAAAATTTTTGGA (double strand) [Pwcw_1080]”, the binding [1] is reported as “binds”.

For “TCGTACCGATCCTTATAAAACGTCTTTTTTCCTAAAACTGAATCCTGCACTTGCACCATGCCTGCAATTTTATCAAAGAACGAATTTTAAAATAAAGAAATTCTCTCAAAAATTGCCGACCATGAATGGACAATCAATGAAAGATTGGCC (double strand) [PqueF (frag0)]”, the binding [2] was “binds”.

With “TTGTCATGAAAAACTCTATGAATCAAATAAGGAGGGGCATTTACATGGCGCTCAGTAAAACTATCAACGAAATGAGGAGCCTTTTTACAGGTCTAATCGATGACCTTCAAAAGGCTGAAGCAGGTAACAAAGCTGCCTCTCAGCGTGTAA (double strand) [PhctA]” the binding [2] was “no binding”.

With “CACCGGAAGATGTGGTGCTGATTGCGGGCAGAGGGCATGAACCTTATCAAATATTTGCGCATCAAACAATAGAATTTAAAGATCGCGAAGTTGTAGAGGATATATTACATTCATGAGGAGAAGCAATCGCAGGGAATTCTTAAAAAATAG (double strand) [PamiA]” the binding [2] was “binds”.

With “TGTAATGCCATGGGATCGCGTTTAAGCGAGATCATATAGTAGCTCCTAAAAAAATATTCCTTGCAAGACAAACAAATTTTTTCGTGTAAAGTTTGCATTTTCAAAATCGGACCAGATGAAAATGCGCAAACTCTCTTTTTTACTCCTCC (double strand) [Prhs9]” the binding [2] was “binds”.

With “TTCGCGGGCAGCGTTGATCCCGCCAAAACCGCCTCCAATAATAATGACTTTAGGTTTGCTCATATCTTGTTTATATAATTAAAAATGATTTTAAAAATCCAGATTAAAATTGTTCGACGAGTTGATGGATTTCTGAAAAGGAAAGGGGGT (double strand) [Pndh]” the binding [2] was “binds”.

With “CCTATATCGTATGGCGGCTAAAAGAGCTTGACCGGGCGAAAAGGGAGCAATTTAAGCAAAAGCGGGAACGGTATTTATTGTACCGCTAAAAACTGGCACTTAAATTCATCAACTGCTAATATGTTGACGTAAATCCATTGAACTCTTAAA (double strand) [PgroES3]” the binding [1] was “binds”.

For “TCCAGTGTTTCTTCATCGATTTTTCCACTGAAAAGAGAACGCAATTTTTCTCCCAGAGCGGAACGCGTTTTGGAGAGGGCATTTTTAACTTTTTCAAAACTAGATTTTAAGAATTTTAGTACCATTGGAAGTCTCAGTTGTGTAAGATAA (double strand) [PftsY (frag0)]”, the binding [2] was “binds”.

“GCTGCTCAATTGGTCTATAAAAAAGGACTTGACTGGCGCCCTTCTATTGTCGACATTTTACCCGTCATTCTGGAAAAACAAATCTAGCAAATAGCTTTGTTGAGTGCTAATTCCTTCTTGACCTCTTTTAAACCCCTTGTTATAATGAAA (double strand) [PhrcA (HrcA EMSA)]” was tested, and the binding [1] was “binds”.

“CTAGCTAGCTAAACATCTGCTTAAGTGATAACACCTCTAATGCTATCAATATCCTTCGATATTTTGCAATAGAAAATTAGCACTTTGGCAATTAAAGTGCTAATAACTTATCCAGCTCCTCGACAAGATTGCTGAATTTTTTGATGGCAG (double strand) [PgroES1]” was tested, and the binding [1] was “binds”.

B1: PqueF_mut 1+2+3+4 (dsDNA)
DNA 1: AAACTGCAGGGCCAATCTTTCATTGATTGTCCATTCATGGTCGGCAAGGGTTGAGAGAAGGGCTTTATTTTAGGGTTCGTTCTTTGATAGGGTTGCAGGCATGGTGCAAGTGCAGGATTCAGTTTTAGGAAAAAAGACGTTTTATAAGGATCGGTACGAGTCGACAAA
DNA 2: TTTGTCGACTCGTACCGATCCTTATAAAACGTCTTTTTTCCTAAAACTGAATCCTGCACTTGCACCATGCCTGCAACCCTATCAAAGAACGAACCCTAAAATAAAGCCCTTCTCTCAACCCTTGCCGACCATGAATGGACAATCAATGAAAGATTGGCCCTGCAGTTT
B1: no binding (His6-Euo).

B2: PftsY_mut 1+2 (dsDNA)
DNA 1: TTTGTCGACTTATCTTACACAACTGAGACTTCCAATGGTACTACCCTTCTTCCCATCTAGTTTTGAAAAAGTTAAAAATGCCCTCTCCAAAACGCGTTCCGCTCTGGGAGAAAAATTGCGTTCTCTTTTCAGTGGAAAAATCGATGAAGAAACACTGGACTGCAGTTT
DNA 2: AAACTGCAGTCCAGTGTTTCTTCATCGATTTTTCCACTGAAAAGAGAACGCAATTTTTCTCCCAGAGCGGAACGCGTTTTGGAGAGGGCATTTTTAACTTTTTCAAAACTAGATGGGAAGAAGGGTAGTACCATTGGAAGTCTCAGTTGTGTAAGATAAGTCGACAAA
B2: no binding (His6-Euo).
